In US20230057263A1 (CYTOMX THERAPEUTICS, published 2023):
No end group written: not given here. *: point of attachment. Biotin = O=C1N[C@H]2[C@H](CS[C@H]2CCCCC(=O)*)N1; code X = not defined here

How the values were obtained:
cynomolgus CD3-epsilon = target: T1, cynomolgus CD3-epsilon (cynomolgus, UniProt Q95LI5 22-198); assay: flow cytometry on cynomolgus T cells
T1 construct: whole, on cells; also called CD3ε on cynomolgus T cells / PBMCs
Protocol: In these experiments, human or cynomolgus T cells were incubated with an anti-CD3ε antibody and binding was assessed by flow cytometry.
Briefly, donor T cells from either human or cynomolgus donors were resuspended in FACS buffer containing 0.1% sodium azide and aliquoted in 100 μL volumes. For incubation, 100 μL aliquots of donor T cells were mixed with 50 μL of antibodies diluted in FACS buffer containing 0.1% sodium azide. The cells were then washed twice with FACS buffer containing sodium azide. The bound antibody was detected by incubating cells for 60 minutes with a 1:200 dilution of SAV-RPE (Invitrogen Cat No. SA10044, Lot. 1542820A) or 1:100 dilution of goat-anti-Mouse Fcγ-RPE (Jackson Cat. No. 115-116-071, Lot. 108668, diluted in 0.2% goat serum). The cells were washed, fixed, and analyzed with an Accuri Flow Cytometer.
Treatment with OKT3, SP34-2, and diL2K antibodies were used as positive controls for T cell binding. […] Treatment with OKT3, SP34-2, and diL2K antibodies were used as controls for T cell binding with only SP34-2 binding to cynomolgus T cells, as expected.

B X GGITQTPYKVSISGT = target: T2, B X GGITQTPYKVSISGT (reading uncertain); assay: Luminex bead assay [Cont.]
T2 construct: row 9 of the chart; also called biotinylated 15-mer, residues 8-22
T2 peptide: {Biotin-code X}-GGITQTPYKVSISGT
Protocol: (§1) A set of experiments was performed to map the epitope recognized by the anti-CD3ε antibodies. In these experiments, the anti-CD3ε antibodies were assessed for binding to a collection of overlapping 15-mer peptides spanning amino acids 1-27 of human CD3ε protein using a Luminex bead assay. Control CD3 proteins, control peptides, or the test peptides were immobilized on Luminex beads and incubated with a panel of anti-CD3 antibodies. Binding of the anti-CD3 antibodies to the peptide/protein immobilized on the Luminex bead was detected by R-Phycoerythrin conjugated secondary antibody.
(§2) Recombinant CD3 proteins (human CD3d/e heterodimer and cynomolgus CD3-epsilon (Sinobiological)) and control peptides (#p1, #p2, and #p3) were conjugated to Luminex beads using standard EDC/Sulfo-NHS chemistry. The 15-mer test peptides were synthesized as biotinylated peptides at JPT Peptide Technologies Gmbh and were immobilized on streptavidin-conjugated Luminex beads that were made using standard EDC/Sulfo-NHS chemistry and streptavidin (Invitrogen Cat. No. 434301 lot 1626028A). The Luminex beads with immobilized peptides or reagents were incubated with 50 ul of a panel of anti-CD3 antibodies (1 ug/ml) for one hour at room temperature, washed two times, incubated with mixture of anti-human and anti-mouse IgG-RPE (Jackson Immunoresearch 109-116-097 and Southern Biotech 1030-09, respectively) for 30 mins at RT, washed three times, and analyzed in the Luminex instrument to assess the level of bound anti-CD3 antibodies.

B X QDANEEMGGITQTP = target: T3, B X QDANEEMGGITQTP (reading uncertain); assay: Luminex bead assay [Cont.]
T3 construct: row 17 of the chart; 14 residues; also called alanine-scan peptide G3A
T3 peptide: {Biotin-code X}-QDANEEMGGITQTP
Protocol: as §1, §2

BSA alone = target: T4, BSA alone (bovine, UniProt P02769); assay: Luminex bead assay [Cont.]
T4 construct: carrier protein without peptide
T4 sequence (P02769 25-607 limits assumed): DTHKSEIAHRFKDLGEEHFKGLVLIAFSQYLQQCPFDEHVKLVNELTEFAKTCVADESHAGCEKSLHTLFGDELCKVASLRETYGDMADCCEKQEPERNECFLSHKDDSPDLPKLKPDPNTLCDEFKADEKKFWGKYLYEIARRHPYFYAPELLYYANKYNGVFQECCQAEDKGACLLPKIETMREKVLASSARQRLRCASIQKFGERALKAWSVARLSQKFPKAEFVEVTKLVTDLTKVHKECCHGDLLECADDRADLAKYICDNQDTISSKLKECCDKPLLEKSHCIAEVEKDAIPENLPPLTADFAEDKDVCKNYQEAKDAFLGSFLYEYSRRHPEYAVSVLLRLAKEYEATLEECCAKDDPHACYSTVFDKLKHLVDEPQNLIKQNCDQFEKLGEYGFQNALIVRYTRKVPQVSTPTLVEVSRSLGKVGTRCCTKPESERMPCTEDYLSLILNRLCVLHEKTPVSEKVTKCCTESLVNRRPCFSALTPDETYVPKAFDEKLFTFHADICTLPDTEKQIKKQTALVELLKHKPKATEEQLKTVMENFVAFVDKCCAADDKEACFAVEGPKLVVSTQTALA
Protocol: as §1, §2

B X QDGAEEMGGITQTP = target: T5, B X QDGAEEMGGITQTP (reading uncertain); assay: Luminex bead assay [Cont.]
T5 construct: row 18 of the chart; 14 residues; also called alanine-scan peptide N4A
T5 peptide: {Biotin-code X}-QDGAEEMGGITQTP
Protocol: as §1, §2

[1] = target: T6, (H2N-KEFSELEQSGYYVCYPRGSNPEDA-OH) vCD3e #p3-BSA (conjugated to BSA); assay: Luminex bead assay [Cont.]
T6 construct: also called control peptide #p3
T6 peptide: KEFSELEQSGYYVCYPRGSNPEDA
Protocol: as §1, §2

B X TPYKVSISGTTVILT = target: T7, B X TPYKVSISGTTVILT (reading uncertain); assay: Luminex bead assay [Cont.]
T7 construct: row 14 of the chart; also called biotinylated 15-mer, residues 13-27
T7 peptide: {Biotin-code X}-TPYKVSISGTTVILT
Protocol: as §1, §2

B X NEEMGGITQTPYKVS = target: T8, B X NEEMGGITQTPYKVS (reading uncertain); assay: Luminex bead assay [Cont.]
T8 construct: row 5 of the chart; also called biotinylated 15-mer, residues 4-18
T8 peptide: {Biotin-code X}-NEEMGGITQTPYKVS
Protocol: as §1, §2

T1 sequence (Q95LI5 22-198): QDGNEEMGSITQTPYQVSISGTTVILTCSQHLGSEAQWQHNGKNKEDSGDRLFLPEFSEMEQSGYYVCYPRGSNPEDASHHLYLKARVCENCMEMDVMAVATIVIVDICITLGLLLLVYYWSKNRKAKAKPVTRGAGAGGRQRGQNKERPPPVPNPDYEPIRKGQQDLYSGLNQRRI

EC50 (read off the curve) (cynomolgus CD3-epsilon): ~0.07 nM
binding result (B X GGITQTPYKVSISGT): no binding (tested: 1 ug/ml)
binding result (B X QDANEEMGGITQTP): no binding (tested: 1 ug/ml)
binding result (BSA alone): no binding (tested: 1 ug/ml)
binding result (B X QDGAEEMGGITQTP): no binding (tested: 1 ug/ml)
binding result [1]: no binding (tested: 1 ug/ml)
binding result (B X TPYKVSISGTTVILT): no binding (tested: 1 ug/ml)
binding result (B X NEEMGGITQTPYKVS): no binding (tested: 1 ug/ml)
B1: 6d59 (antibody, V domains shown)
VH: QVHLVESGGGVVQPGRSLRLSCAASGFKFRSYGMHWVRQAPGKGLEWVAIIWYDGSKRYYADSVKGRFTISRDNSKNTLYLQMSSLRAEDTAVYYCARDLITGTTDYWGQGTLVTVSS
VL: DVVMTQSPLSLPVTLGQPASISCRSSRSLVYSDGNTHLIWFQQRPGQSPRRLIYRVSNRVSGVPDRFSGSGSGTDFTLKISRVEAEDVGVYYCLQGAHWPYTFGQGTKLEIKR
notes: also called 6d59.1; VCD3-6d59.1
